Assay results taken from publication PMC6499816, “Molecular determinants regulating selective binding of autophagy adapters and receptors to ATG8 proteins” (Nature Communications, 2019).
One block for each substance: values may come before it.

How the values were obtained:
PCM1 V1956D LIR peptide = experiment: BLI; biotinylated LIR peptide immobilised on streptavidin biosensors (Octet Red 96), ATG8 protein in solution; 25 mM Tris pH 7.5, 150 mM NaCl, 0.5 mM TCEP, 0.1% Tween-20, 1 mg/ml BSA, 25 °C; Kd from response against concentration, Y=Rmax*X/(Kd+X)
[1] = target: PCM1 LIR peptide (biotinylated, BLI); experiment: BLI; biotinylated LIR peptide (50 μg/ml) immobilised on streptavidin biosensor, ATG8 in solution; Octet Red 96; 25 mM Tris pH 7.5, 150 mM NaCl, 0.5 mM TCEP, 0.1% Tween-20, 1 mg/ml BSA; 25 °C; Kd from response against concentration
[2] = target: ULK1 LIR peptide (biotinylated, BLI) (human); experiment: as above
PCM1 WT LIR peptide = experiment: BLI; biotinylated LIR peptide immobilised on streptavidin biosensors (Octet Red 96), ATG8 protein in solution; 25 mM Tris pH 7.5, 150 mM NaCl, 0.5 mM TCEP, 0.1% Tween-20, 1 mg/ml BSA, 25 °C; Kd from response against concentration, Y=Rmax*X/(Kd+X)
PCM1 K1957I LIR peptide = experiment: as above
FIP200 T704I LIR peptide = experiment: as above
GFP-GABARAP F60L (human) = GFP-GABARAP F60L (human) (UniProt O95166); experiment: co-IP; GFP-TRAP beads, lysates of HEK293A cells expressing GFP-GABARAP or GFP-LC3B constructs, TNTE buffer, 2 h at 4 °C; immunoblot of endogenous proteins, quantified
[3] = target: -L1 (recombinant, BLI) (human) (UniProt Q9H0R8); experiment: BLI
-L1 (recombinant, BLI) (human), sequence (Q9H0R8 whole entry): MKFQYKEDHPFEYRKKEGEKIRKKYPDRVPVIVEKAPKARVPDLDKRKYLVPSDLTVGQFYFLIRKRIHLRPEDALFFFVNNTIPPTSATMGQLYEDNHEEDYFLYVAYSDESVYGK

LC3B (Homo sapiens) = LC3B (Homo sapiens) (UniProt Q9GZQ8); experiment: ITC; settings: cited from earlier work

GABARAP-L1 (recombinant, BLI), sequence (Q9H0R8 whole entry): as above
PCM1 LIR peptide mutated at P1962 (X7) (BLI), sequence (Q15154 whole entry, looked up, change not shown, tested part not stated): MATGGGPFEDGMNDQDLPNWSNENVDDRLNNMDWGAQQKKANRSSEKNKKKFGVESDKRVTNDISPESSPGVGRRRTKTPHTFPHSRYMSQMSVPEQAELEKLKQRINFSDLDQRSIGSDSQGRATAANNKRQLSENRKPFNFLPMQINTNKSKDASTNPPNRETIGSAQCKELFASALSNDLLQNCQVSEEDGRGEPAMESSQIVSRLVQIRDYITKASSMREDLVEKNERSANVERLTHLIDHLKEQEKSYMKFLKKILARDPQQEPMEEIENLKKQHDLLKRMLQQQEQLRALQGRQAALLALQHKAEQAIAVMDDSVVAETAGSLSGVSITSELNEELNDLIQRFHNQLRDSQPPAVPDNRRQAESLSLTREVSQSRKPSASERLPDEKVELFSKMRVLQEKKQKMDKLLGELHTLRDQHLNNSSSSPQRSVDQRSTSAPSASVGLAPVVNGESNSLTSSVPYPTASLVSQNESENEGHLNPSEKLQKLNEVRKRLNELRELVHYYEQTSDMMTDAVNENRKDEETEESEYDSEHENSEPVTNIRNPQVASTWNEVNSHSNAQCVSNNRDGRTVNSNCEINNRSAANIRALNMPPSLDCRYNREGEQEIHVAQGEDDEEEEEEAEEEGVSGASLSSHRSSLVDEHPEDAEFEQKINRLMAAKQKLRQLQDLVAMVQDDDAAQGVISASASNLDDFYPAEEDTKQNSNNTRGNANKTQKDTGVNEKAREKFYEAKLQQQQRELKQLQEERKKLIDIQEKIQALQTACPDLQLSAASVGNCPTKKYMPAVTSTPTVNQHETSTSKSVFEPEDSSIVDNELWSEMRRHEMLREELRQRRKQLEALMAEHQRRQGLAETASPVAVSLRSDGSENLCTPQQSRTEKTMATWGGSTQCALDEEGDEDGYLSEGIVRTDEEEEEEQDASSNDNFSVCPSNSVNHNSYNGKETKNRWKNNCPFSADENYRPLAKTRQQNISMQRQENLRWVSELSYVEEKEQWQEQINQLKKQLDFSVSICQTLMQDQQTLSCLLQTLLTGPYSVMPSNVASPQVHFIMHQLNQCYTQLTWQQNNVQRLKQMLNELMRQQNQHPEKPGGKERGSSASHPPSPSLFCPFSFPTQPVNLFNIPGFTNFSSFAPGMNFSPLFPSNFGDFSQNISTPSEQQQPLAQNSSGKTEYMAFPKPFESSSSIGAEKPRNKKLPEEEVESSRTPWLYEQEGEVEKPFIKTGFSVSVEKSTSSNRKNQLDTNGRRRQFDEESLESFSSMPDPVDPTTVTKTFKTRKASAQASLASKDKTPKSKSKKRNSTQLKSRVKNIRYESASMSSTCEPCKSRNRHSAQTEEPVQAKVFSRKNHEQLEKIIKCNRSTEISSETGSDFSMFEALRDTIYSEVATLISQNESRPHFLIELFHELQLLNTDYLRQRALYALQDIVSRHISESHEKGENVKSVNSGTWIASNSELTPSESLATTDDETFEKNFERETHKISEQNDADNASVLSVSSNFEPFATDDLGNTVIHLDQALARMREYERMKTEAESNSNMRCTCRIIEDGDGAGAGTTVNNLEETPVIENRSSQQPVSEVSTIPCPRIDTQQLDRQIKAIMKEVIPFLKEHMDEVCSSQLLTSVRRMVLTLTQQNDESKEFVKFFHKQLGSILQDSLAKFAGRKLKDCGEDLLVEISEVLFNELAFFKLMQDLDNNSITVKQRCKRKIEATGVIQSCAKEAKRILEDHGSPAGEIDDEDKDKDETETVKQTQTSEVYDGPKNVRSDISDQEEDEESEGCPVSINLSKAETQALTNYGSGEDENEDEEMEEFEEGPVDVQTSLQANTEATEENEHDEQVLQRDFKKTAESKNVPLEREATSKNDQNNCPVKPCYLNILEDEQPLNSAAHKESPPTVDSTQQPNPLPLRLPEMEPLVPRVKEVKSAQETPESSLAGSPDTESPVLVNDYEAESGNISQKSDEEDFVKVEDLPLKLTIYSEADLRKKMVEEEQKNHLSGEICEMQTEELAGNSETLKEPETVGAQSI

Kd (PCM1 V1956D LIR peptide): 7720 nM
Substance: GABARAP (from UniProt O95166 1-117) (natural protein)

Kd [1]: 2000 nM
Kd [2]: 50 nM
Substance: GABARAP (recombinant, BLI) (from UniProt O95166 1-117) (natural protein)

Kd (PCM1 WT LIR peptide): 16600 nM
Substance: GABARAP K24Q (from UniProt O95166 1-117) (natural protein)

Kd (PCM1 WT LIR peptide): 250000 nM
Substance: GABARAP K24Q/Y25H/Q59E/F60L (from UniProt O95166 1-117) (natural protein)

Kd (PCM1 WT LIR peptide): 66000 nM
Substance: GABARAP K24Q/Y25H/R28K (from UniProt O95166 1-117) (natural protein)

Kd (PCM1 WT LIR peptide): 11400 nM
Substance: GABARAP Y25H (from UniProt O95166 1-117) (natural protein)

Kd [1]: 1600 nM
Kd [2]: 48 nM
Substance: GABARAP-L1 (recombinant, BLI) (from UniProt Q9H0R8 1-117) (natural protein)

Kd (PCM1 K1957I LIR peptide): 3930 nM
Substance: LC3A (from UniProt Q9H492 1-121) (natural protein)

Kd (FIP200 T704I LIR peptide): 2000 nM
Kd (PCM1 K1957I LIR peptide): 384 nM
Substance: LC3C (from UniProt Q9BXW4 1-126) (natural protein)

percent reduction of interaction against WT GABARAP (GFP-GABARAP F60L (human)): 90%
Substance: PCM1 (pericentriolar material 1), Q15154-5 1-2016

Kd [3]: 880 nM
Substance: PCM1 LIR peptide mutated at P1962 (X7) (BLI) (from UniProt Q15154)

Substance: p62 LIR (from UniProt Q13501)
Kd (LC3B (Homo sapiens)): 3200 nM
